From article doi:10.1101/565937 come the findings set out here.

Common to all, as to assay: EMSA
For series [1], the target named is T1, HuR (UniProt Q15717 1-326).
The target of a further series is AUF1p37 (Homo sapiens, UniProt Q14103-4 1-287).
The target of series [2] is T1, HuR. This is another data set of the same source.

T1 sequence (Q15717 whole entry): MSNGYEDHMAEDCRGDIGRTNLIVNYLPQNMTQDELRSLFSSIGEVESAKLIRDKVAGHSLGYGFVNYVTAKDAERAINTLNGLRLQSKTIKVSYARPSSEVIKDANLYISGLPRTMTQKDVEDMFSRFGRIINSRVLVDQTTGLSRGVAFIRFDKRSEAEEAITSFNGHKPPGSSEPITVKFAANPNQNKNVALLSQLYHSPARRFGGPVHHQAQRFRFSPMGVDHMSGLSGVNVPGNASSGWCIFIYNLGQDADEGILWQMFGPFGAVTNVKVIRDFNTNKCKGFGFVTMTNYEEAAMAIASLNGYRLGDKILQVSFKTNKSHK

A word on the Kd: it is a measure of binding affinity in units of concentration. As to AAAAAAAUUUUAAGAGCUGG (ssRNA) [Nrf2 3'-UTR Site 3], the Kd with HuR [1] was 75 ± 20 nM; in the series with AUF1p37 it was 670 ± 82 nM.

Take GCUAGUUUUUUUGUACUAUU (ssRNA) [Nrf2 3'-UTR Site 1]: the Kd with HuR [1] is 20 ± 5 nM; with AUF1p37 it was 6 ± 2 nM.

Turning to AAAAACUUAUUUAUACUGUU (ssRNA) [Nrf2 3'-UTR Site 2], the Kd with AUF1p37 was 25 ± 4 nM. Besides, the binding result in the series with HuR [2] is recorded as “no binding”.
